# Reference: a protein production outcome set (Wang et al. 2014)
# Test: label from the status in PepcDB records
row,Sequence,protein production
1,MIDVINNQAFHLHNDQISYICALLPNGQLGHLYFGPRLSLTKNDLAYLSQGSSPFAWMANFSDDQEFALGDAQQEYPVYGTGDFRQGSLSVTQDDMPIYPNFVFKDDQLTHTKTRDLHHPTSFGNPALTDVLTIHLEDKTAQLLLTLQYTIFADSAAIVRSATLTNQGTAPVMIQRMLSGVLNLPQGRYDVVHLSGNWAKERHIQTQPLTQGTFSVESLRGASSHEQNPFVALHAAGQPFAAGDTYGANLIYSGNFLDSTEVNEWDQTRLLTGIHPASFSWRLDPKTSFTTPETVFSYSSGGLAGLAQANQRFVARHIIDPQWRQKQRPVVLNSWEATYFDLNEKKLLKLAALGKQVGVDCFVLDDGWFGTRDNDLSSLGDWFTNKHKFPDGLGHFAQEIHAMGLQFGLWFEPEMVSPRSQFFQAHPNWVVRPKKGRISITRNQYVLDFSNPAVVNNIFEQMQKVITETNLDYVKWDLNRSITEAFSPYLEKIGHPQGEFFHRYVQGVYTLYQKLLTAFPHLLIEGCAGGGGRFDLGILFYSPQIWTSDDSDAIERLAIQSGMALAYPLSCMSNHVTAVPNEQVGRSTPLVTRFRVAAFGILGYELDLTKLDARTLATIKAQIAYYHALQPLVLKGDFSLLLPRQSNGQNQVAWLLSAHDRKHLVLGFFRVLADADSRTVQYMKVPLAKSDTPYWVNQHTGPISGDVLQRVGVRLPVQFNGANRAQAQLIGDYQSVLLTFDSVASLDHILEHHHHHH,failed
2,MIEFVYPHTQLVAGVDEVGRGPLVGAVVTAAVILDPARPIAGLNDSKKLSEKRRLALYEEIKEKALSWSLGRAEPHEIDELNILHATMLAMQRAVAGLHIAPEYVLIDGNRCPKLPMPAMAVVKGDSRVPEISAASILAKVTRDAEMAALDIVFPQYGFAQHKGYPTAFHLEKLAEHGATEHHRRSFGPVKRALGLAS,not failed
3,MIEINIQGSSSAGNNYLLADGNSSLMLEAGLKPKDIMKQGINFSNIQGLLVTHEHGDHSKYINDILLAGRFDVWASRGTLEGLGINRRSHILKANQQQKIGDWLVKPFATIHDDKKARAREPLGFLILSPSGKKIVFATDTNYLPKTFKDVTHWLVECNHDIKLVRQSKLPKSVQDRILRTHMSIDACKKFFQSTDLTKTEEIYLIHLSDKNSDPEKFKEEIEKITNKKIIIA,failed
4,MIEITFLGGGGGRFVTITQVRATGGFFIKASKNIYVDPGPGALVRMWRYKIDPRKVDVLFISHRHTDHCNDAEVLVEGMTYGVTKKRGTLIGSKSVVHGDENHTPALSKYHLDALEEVHAPNPGDRFKIGEDEMIITPSLHSDPTTIGFRLKTSYGDISYIPDTEYFEELVKWHDGARVIIAAVTRPRDMRIPFHLSSEDAVYLLKSMKQKPEVFIMTHAGMKMHFAGPYKEAQFIQNLTGVKTYVAKEGFKVSIGKEISVKTLRPARFVLEHHHHHH,not failed
5,MIELEGVPELVDPVMVAAFEGWNDAGDAASTAVAHLDREWKGEVFAALDAEDYYDFQVNRPTVFMEDGVRKITWPTTRLSVVRVGGDKPRDLVLVRGIEPSMRWRSFCNELLGFAHELGVELVVVLGALLGDTPHTRPVPISGTTSDADLARRMDLEETKYEGPTGIVGILQEACTHAGVPAVSLWAAVPHYVSQPPNPKATLALLNRLEDLIGVRVPLGELPEDARAWQVGVDQLAAEDTEVAEYVQSLEEARDTA,not failed
6,MIELIDPISKQRLEESPEGLRNENGIVVYPLINGAYRVAASDNYTSNFGLEWNTFQKTQIDKFSGNTVSEERLFAQTNWQKNGLEGETILEVGSGAGRFSQIMLDHTKATLYSVDYSEAVEANYRNNGPHERFKLFQASIYELPFKQASFDRVICLGVLQHTPDFKASVKALVEMVKPGGELVIDFYPIRNVFTKVHGKYLLRPILKRVNHHRLMSLIRNNIDFLISIYTFNRRIGLGVFNRFVPICEIERTLPKGMTPEQLKEWIILDTFDMFSPEYDQPQRLSTVAKWVKEFGMADVDASWVTYHGKLEAPTVRGRKVLEHHHHHH,not failed
7,MIEMAYDDDENSMAIKVWRLYVDLWKLWYKKNERNLNKIDLSITEFTIMRHLIENGPMSMAAIASLINVTPGWITGVVDKMEEKNLVTRNRDSTDRRIIKIAITDRGREVYENAKKNHYAFIRKALAELNENELQQTYVLLQKMMDDVSKLESN,failed
8,MIETTAALAEACTELAKSEFITIDTEFLRETTFWPELCLVQMASPTLEVLVDPLAKGIDLTPMFELMANPNVVKVFHAARQDIEIIYHLGGLIPHPIFDTQVAAMVCGFGDSISYDQLVQKIKNVQIDKSSRFTDWSRRPLTEKQLDYALADVTHLRDVYLSLKAQLEREGRSLWLTEEMNILESRDTYDMHPDDAWLRLKSRLRKPTELAILKFVAAWREREARSRNVPRSRVLKDDGIFEIAQQQPKDAEALSRLRTIPKGWERSASGTAIIETVNAALALPKEEMPKAPRHSHAPEGSGAAVELLKVLLKLTADKHGVAAKVIANSDDLDKIASEGENATVAALTGWRRELFGDVALKLINGEVALRFAGKKVEAVEVEAAASES,failed
9,MIEWQLAELIPHAGDMILIDQVLDFDEEQINTRLTVRADGLFNQPDGSLPAWLGIELMAQSVAAYAGCQARSKGEAVKLGFLLGSRKFDCNVARFPAGSELHIHAIRSLQDDSGMGVFECTLTGPDITALARLNVYCPPNTADYLAEGAPALEHHHHHH,not failed
10,MIFLVYDILLLLLSPLILIHHAWRTVSRGRSFAGFGERFGCIAPESLARVAGKGPIWVHAVSVGETMAVKPLLRELKRRFPERPLVLSSVTETGRSVAVTIPEADLVVYFPFDFGFAVARALRLVAPSLVIVVETEIWPNFLRHARRTGIPSVMVNGRISDRSFPRYLRFSRFFAPILNNLSALCMQSSEDARRIIAVGAPAERVHVTRNLKYDLPVRSLTPAERQELLCSYRLPAGALIITAGSTHAGEEEVVADIYARLAGERSDLFLVLVPRHPERAVEVGTLLEGKGIPFVRRSALDKVQEQPRGGVLLVDTIGELMKLYALSDVVFVGGSLVPVGGHNLLEPASVGAPVLFGPHMHNFREITALVLGAGAGEQVNDHGELEATLRRLLADEPARRSMGENGIRLMADQGGAAARHLEIIGPLIERGSEVARLEHHHHHH,not failed
11,MIFMHPKTLEILKMFEEINKIPRRSKNEEKLALWLMEWAKNHNFEAKTDALNNVLIKVPPTPGYENSPAIVLQGHMDMVCEKCRDSGHDFSKDPIICIYEGDWLRGDGTSIGADNGIALAIGLVLAESGIKGEIEHPPLELLFTVDEETGLTGASGLEEDFFEGRILLNLDSEDEGIFILGCAGGQNSRIFLPLQWESFDYGKGSGFGLFRISAEGLEGGHSGVEIHRQRANGIQLLARMLSALKEKVGKENLRLVFFSGGSVHNAIPNYAEAFIVLSRNNEKQAEDFVSGLQKSFRGEYAVSDPEITLQLKEVENGIIFEASGGKITRKEVPSDRVFSVETEEKLYGVLLGMPHGVHRVSDTIPGLVETSNNLATVRTGEKEVRIVSSQRSSVMSRLAEVTEKVETVAKLAGARVEHECGYPAWEPDLQSGLLMKCRHAYSGTFGKEPEIKVVHAGLECGVIGSKCECIEMISFGPTIKDPHSPAERVYIPSIEKVWVFLENLMKSYRLEHHHHHH,not failed
12,MIGFLTDWGLKSHYVGVAKAVIKRINPSAEIIDITHEVEPFNVRKASHVLYRASLDFPPSTVFLVVVDYGVGTSRKAIVMKTKNDQYFVAPDNGVLTVVAEEYGVAEIREIENRELFYKKNPSFTFHGRDIFAPVAAHLDMGLPLERVGDRLLSYEVLKMRKPVVENEKVIGEVAIVDTFGNVSTNIPFDLFLKLSVDFDDVVRVRVGRKEFKAAVAKAFGDVDTGELLVHPDSAGFLEIAVNLGDASQVLSVKEGDEIEICR,not failed
13,MIGGSIISSNLLIRIFHGSCRKIIAFLFTILSLTLISGVLIYFVEGETGGFISRSSSVYWAITTLLTTGYGDTVLQTNFGRLVASVVKVLGFSIIVAPIVIIITEIYKSLSETSRKTKSLTISPFPLIWRYLNTQYFRML,failed
14,MIGHRPLLAALERGHCASYTFVMKRRNFFRFSALGLLALAGGGLYARRSSASAYYSGPISDHFDGVRFFNPGGTPPGNFMGLLKWRFNGERATWPETYPSPFPFAKPEARIDGRDMRVTFVGHASFLIQTAGLNILVDPVWSQRTSPLSFAGPKRVNPPGIRFEDLPPIDLVLVTHNHYDHLDMETLKRLHVAHKPLFITPLGNDAVIRTGVEAARIKVGDWGDVVETGSVKIHFEPCHHWSARGLNDRSMALWAAFVIETPGGKIYHIGDTGFHEGLNYGAARKKHGEFRLANLPFGAYEPRWFMKGQHQNPAEAVEGMRLCGAAHVCGHHWGTVQLTDEAVDAPLAALKAALTEQGVEESRFRPMRPGEVFDVPSA,failed
15,MIGKTVIVGSKNMKEKILKFITSKFFVLGIQLLATIAVVYFTFKLDLVPTKYLIAGIVVLALLLAGFFGIIYSSEQKIKKGLSSKRGIVTKIISLLTSIILIAGCTYISRGNNFIENVSNATGQEYVVSVISLKNGKITKLKDLDSSKKIGVSYEKDTVTIAEALKDLDTEIGDHEYTKYDNYASLADALYEGKVDAIVVGEQYRTMLQTNHEEFNDVTKVLKSYAYDAKMEVTTKQTDVTENAFSIYVTGIDVYGSLKTVSRSDVNLIVTVNPKTKQILMTSIPRDCQINLHKNGKMDKLTHTGIYGTSETINTIQDLLEMKINYFARTNFSGMTNIVDALGGITVNSSEAFETLHGNYQISEGLNEMDGDKALCFVRERKRLKRGDFARGENQQKVLKAMLDKAMSPKIITNFNNILSAVEGCFETDMSDKEIKSLINMQLNDMADWKIINVQIEGEYQLMDDTFSMKGTNSDVMIPFESHIERVRELINKVEEGKEIKDSELKGLTH,failed
16,MIGLSKSRGALSMENQKMPEYETIRAAVAGEKWAVEKVVECYKDEIDRLSTVAVRQPDGSTKQEINEDMRQSITKKLIEALPQFPLEEMEKGNVRLEHHHHHH,not failed
17,MIGPMWSDVIDLRDFYATSQGQLTRRLIGRSLRALWPEVRGCRVLGLGYAVPFLQPFADEAERVVAMMPAPMGAVRWPSVGPVQGALADELELPLPDRSIDRLLLIHGLEFADHAHGLLRECWRVLADNGRLMVVVPNRRATWARMERSPFANGQPYSEGQLTRLLRDRLFTPIASSTALFMPPSRSRMVMGSASLLEQIGCRLFPAFGGVVVVDCAKQIAAPVLRSAVASRRVYVGVGLSQPLQGSSRAGFKNPAPFTGVDGS,failed
18,MIGREGVTTLRFTVKQQFITHKHTLYGVAAILLWGSLMALTRRVAEEFSPIGGAALIYTVSTLFLLFAMGMPRLKAGSSRYILIGGALFVSYEICLALALGMASDRLQAIEMSVINYLWPALTVLIAVLLSQRAVSFWVYPSVGLAFAGVAWTIVAEQGISLADFSARIATNPAVYAMALTGAFIWAIYCNVTQRLARGQNAIVLFFAATAATLWLQYALSNEPALSFTGSSMGTLLLTGIVMGSGYALWNVAILRGNMLLLATLSYFTPVISTLFSSLILGVVLGLSFWQGVIMVTFGSLICWWVTRESSSSTGEVPETPPPLKEQS,failed
19,MIHQIESVQAGKKIYFLSDFHLGVPSDEESWKREKKIIRFLDSITPAAQAVFLLGDIFDFWFEYKHVIPKGFARLQGKIAQLTDSGIPVYLYTGNHDLWMFGYLEKELGVTVFHKPIDWEIAGKKFLIGHGDGLGPGDFVYKCTKKVFVNPFFQWVFKMTPPAIGMGIAKFWSGKSRQHNTDDRFFEEKEFLWQYCKEQNVLKHRSYYIFGHRHMPLDLPVGDSARYVNIGDWIKFDTFAEFDGNELKLISWKETSEPYSL,failed
20,MIHRRCVGGRRNHGGRVAQGSSRSRLPQQGTPVTMSSTSSTPPWNVQRLPGADGRVFLVTGGNAGIGYFVAEQLSATGATVVLGSRNPAKAEAATASIRARVPGSRVRAVRLDLADLSSLETAVESLEVERLDAVVHNAGVALDDPPREETGDGHELMFGTNHLGHFALTQWLMPLLSAAPAARVVTMGSFAAKSERLDLDDLQSRKDYQPKRTYGRSKLAQMYFGVELDRRLRAAGSTVASVVVHPGGALDSLTPSRPPVHVRSTGARLSAAPAALLLQGKHAGAWPAVRAVLDPAVRGGQLWGPRVFGLRGEPRREPVWDHLADPSVAARLWDASCDLMGTDLSTISG,failed
